{"source": "paper PMC9977294", "about": "“A parasitic fungus employs mutated eIF4A to survive on rocaglate-synthesizing Aglaia plants”", "key": {"eIF4A1 Phe163His": {"molecular_target": "eIF4A1 Phe163His (Homo sapiens, UniProt P60842 1-406, F163H)", "sequence (P60842 whole entry F163H)": "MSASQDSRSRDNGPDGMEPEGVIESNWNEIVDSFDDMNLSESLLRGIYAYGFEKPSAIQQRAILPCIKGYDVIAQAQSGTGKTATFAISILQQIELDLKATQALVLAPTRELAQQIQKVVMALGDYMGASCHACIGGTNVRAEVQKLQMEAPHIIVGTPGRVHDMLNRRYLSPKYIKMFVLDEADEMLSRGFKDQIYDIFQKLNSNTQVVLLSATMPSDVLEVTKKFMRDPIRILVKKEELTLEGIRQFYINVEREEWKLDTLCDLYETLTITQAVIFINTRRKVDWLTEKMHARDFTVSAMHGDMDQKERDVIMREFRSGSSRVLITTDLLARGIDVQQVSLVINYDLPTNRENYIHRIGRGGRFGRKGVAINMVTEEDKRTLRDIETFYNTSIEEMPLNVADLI", "test": "fluorescence polarization; 1 mM AMP-PNP, DMSO; 20 mM HEPES-NaOH pH 7.5, 150 mM NaCl, 1 mM MgCl2, 1 mM DTT, 5% glycerol, 1% DMSO, 10 nM FAM-RNA, 0-25 uM protein (source data up to 50), 1 mM AMP-PNP or 1 mM ADP + 1 mM Na2HPO4, room temperature 30 min; Hill fit, n = 3", "settings": "protein: recombinant; tags: His; single strand"}, "eIF4A1 Phe163Gly": {"molecular_target": "eIF4A1 Phe163Gly (Homo sapiens, UniProt P60842 1-406, F163G)", "sequence (P60842 whole entry F163G)": "as the sequence (P60842 whole entry F163H) above, with H163G counted along it", "test": "fluorescence polarization; 1 mM AMP-PNP, DMSO; 20 mM HEPES-NaOH pH 7.5, 150 mM NaCl, 1 mM MgCl2, 1 mM DTT, 5% glycerol, 1% DMSO, 10 nM FAM-RNA, 0-25 uM protein (source data up to 50), 1 mM AMP-PNP or 1 mM ADP + 1 mM Na2HPO4, room temperature 30 min; Hill fit, n = 3", "settings": "protein: recombinant; tags: His; single strand"}}}
{"binder": "AGAGAGAGAGAGAGAGAGAG (ssRNA)", "note": "[[AG]10 polypurine RNA]", "values": [{"measurement": "Kd", "setting": "eIF4A1 Phe163His", "value": "16 ± 2.7", "unit": "µM"}, {"measurement": "Kd", "setting": "eIF4A1 Phe163Gly", "value": "21 ± 6.7", "unit": "µM"}]}
